We go through three molecules from patent publication US20210347868A1 (published 2021).

Experiment [1] deals with full-length synuclein. In words: ITC. Background: Isothermal titration calorimetry measures the heat released or taken up as one component is titrated into another.
For experiment [2], the target named is full-length synuclein. In words: ITC. The source holds these as a separate data set.

Read-outs that look alike come from different tables or passages of the source.

B1: Asyn-338.1 (antibody, V domains shown)
VH: QVQLVESGGDIVQPGGSLKLSCAASGFTFKSYWMHWVRQVPGKGLFWVSRINTFGNKTSYADSVRGRFSISRDNTKSILYLQMNSLKAEDTAVYYCARSTLGSFDYWGQGTLVTVSS
VL: AIQLTQSPDSLAVSLGERATINCKASQSLLYSSNNRNYLAWYQQKPGQPPKALIYWASTRESGVPDRFSGSGSGTDFTLTISSLQAEDVAVYYCHQYYTTHSFGQGTKLEIK
In experiment [1], B1 displayed a dissociation constant (Kd) of 0.3 µM.

B2: Asyn-336.1 (antibody, V domains shown)
VH: EVQLVQSGGTLVQPGGSLRLSCAASGFTFSTYAISWVRQAPGRGLEWVSFITGDGSRILYADSVRGRFSISRDNSKNTLYLQMNSLRTDDTAMYYCVFNHYWGQGTLVTVSS
VL: B1 VL
Consider B2, for which, in experiment [1], the Kd worked out at 1.4 µM.

B3: Asyn-323.1 (antibody, V domains shown)
VH: EVQLLESGGGLVQPGGSLKLSCAASGFTFSASAMHWVRQTSDKRLEWVGRIRNKANNYATAYAASVKGRFTISRDDSKNTAYLQMNSLKTEDTAVYYCTRHLSLGGNSVDYWGQGTPVTVSS
VL: DVVMTQSPLSSPVTLGQPASISCRASQSPVHSDGNTYLSWLQQRPGQPPRLLIYTISNRFPGVPDRFSGSGAGTDFTLRISRVEAEDVGVYYCMQGTQFPYTFGQGTKLEIK
Regarding B3, in experiment [2], binding was characterised by a dissociation constant (Kd) of 2.8 µM.

For orientation: Kd means the constant that tells how readily two partners part at equilibrium. A lower Kd goes with a tighter complex.
